From the nanobody polyreactivity screen of Harvey et al. (2022)

Assay: yeast display, Sf9 membrane polyspecificity reagent, FACS + sequencing; frameworks hold sequencing errors
How it was run: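 Nanobodies came from a synthetic yeast display library in Saccharomyces cerevisiae BJ5465, induced with galactose for 36–48 hours and stained for 1 hour at 4 °C with 10% biotinylated, detergent-solubilized Sf9 membrane reagent. Cells were enriched on streptavidin microbeads and then FACS-sorted, with low and high (top ~1%) gates set on anti-HA fluorescence for expression and streptavidin fluorescence for reagent binding. Each polyreactivity label reflects the gate a clone came from. Genes were amplified by colony PCR, sequenced by MiSeq 2 × 250 and filtered by CDR length.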

Row | Sequence | polyreactivity (PSR sort gate)
1 | QVQLVESGGGLVQAGGSLRLSCAASGSIFFYNAMGWYRQAPGKERELVAAISRGGNTNYADSVKGRFTISRDNANNTVYLQMNSLKPEDTAVYYCNAESLSGAHGYWGQGTQVTVSS | low polyreactivity
2 | QVQLVESGGGLVQAGGSLRLSCAASGSIFFYYAMGWYRQAPGKERELVASISTDGSTYADSVKGRFTISRDNAKNTVSLQMNSLKPEDTAFYYCATRGAEAERFASYDFDYWGQGTQVTVSS | low polyreactivity
3 | QVQLVESGGGLVQAGGSLRLSCAASGSIFFYYTMGWYRQAPGKEREMVAAISVGGSTYYADSVKGRFTISSDNAKNTVYLQMKSLKPEDTAVYYCNAVPAKGYVTVVRYYYWGLGTQVTVSS | low polyreactivity
4 | QVQLVESGGGLVQAGGSLRLSCAASGSIFGANAMGWYRKAPGKERELVAAISTRGGRTYYADSVKGRFTISRDNAKNTVYLQMNSLKPEDTAVYYCATSGGRPYKYEYWGQGTQVTVSS | high polyreactivity
5 | QVQLVESGGGLVQAGGSLRLSCAASGSIFGDNAMGWYRQAPGKERELVAAIDSDGSTNYADSVNGRFTISRDNAKNTVYLQMNSLKPEDTAVYYCAASEPYSKPYTYDYWGQGTQVTVSS | low polyreactivity
6 | QVQLVESGGGLVQAGGSLRLSCAASGSIFGDNAMGWYRQAPGKERELVAAITSSGGSTYYADSVKGRFTISRDNAKNSVYLQMNSLKPEDTAVYYCNADFGYGWYLRYDYWGLGTQVTVSS | high polyreactivity
7 | QVQLVESGGGLVQAGGSLRLSCAASGSIFGDYVMGWYRQAPGKERELVAAISGNGGRTYYADSVKGRFTISRDNAKNTVYLQMNSLKPEDTAVYYCAKVRSVTIGRDYWGQGTQVTVSS | high polyreactivity
8 | QVQLVESGGGLVQAGGSLRLSCAASGSIFGDYVMGWYRQAPGNERELVAAINRGGSTYYADSVKGRFSISRDNAKNTVYLQMNSLTAEDTAVYFCAAGYPSWYYCYPYDSWGQGTQVTVSS | low polyreactivity
9 | QVQLVESGGGLVQAGGSLRLSCAASGSIFGENAMGWYRQAPGKERELVAAITWSGASTYYADSVKGRFTISRDNAKNTVYLQMNSLKPEDTAVYYCNADRYVRYSTFDYWGQGTQVTVSS | high polyreactivity
10 | QVQLVESGGGLVQAGGSLRLSCAASGSIFGFNAMGWYRQAPGKERELVAAINGGGTTYYADSVKGRFTISRDNAKNTVYLQMNSLIPEDTAVYYCAATPNGYYYLGYDYWGQGTQVTVSS | low polyreactivity
11 | QVQLVESGGGLVQAGGSLRLSCAASGSIFGFNAMGWYRQAPGKERELVAAISSGSTYYADSVKGRFTISRDNAKNTVYLQKNSLKPEDTAVYYCAATTGYSWYGYWGQGPQVTVSS | low polyreactivity
12 | QVQLVESGGGLVQAGGSLRLSCAASGSIFGFNAMGWYRQAPGKERELVASISSSGDSTYYADSVKGRFTISRDNAKNTVYLLMNSLKPEDTAVYYCATEGRTDYNREMEYWGQGTQVTVSS | low polyreactivity
13 | QVQLVESGGGLVQAGGSLRLSCAASGSIFGFYAMGWYRQAPGKERELVAAIRYTGGSTYYADSVKGRFTISRDNAKNTVYLQMNSLKPEDTAVYYCNARTFRRYVSYSRTYVGYDYWGQGTQVTVSS | high polyreactivity
14 | QVQLVESGGGLVQAGGSLRLSCAASGSIFGFYAMGWYRQAPGKERELVAAISDSGDSTYYADSVKGRFTISRDNAKNTVYLQMNSLKPEDTAVYYCATDGRSNYYWGDYWGQGTQVTVSS | low polyreactivity
15 | QVQLVESGGGLVQAGGSLRLSCAASGSIFGFYAMGWYRQAPWKERELVAAINSNSGSTYYADSVKGRFTISRDNAKNTVYLQMNSLKPEDTAVYYCAARSPYVTPQGFNYCGQGTQVTVSS | high polyreactivity
16 | QVQLVESGGGLVQAGGSLRLSCAASGSIFGFYMGWYRQAPGKERELVAAISGSGGNTYYADSVKGRFTISRDNAKNTVYLQMNSLKPEDTAVYYCAAVSRHRGWDRYYWGQGTQVTVSS | high polyreactivity
17 | QVQLVESGGGLVQAGGSLRLSCAASGSIFGGNAMGWYRQAPGKERELVAAITTGDGSTYYADSVKGRFTISRDNAKNTVYLQMNSLKPEDTAVYYCAADIVHDRFDYWGQGTQVTVSS | low polyreactivity
18 | QVQLVESGGGLVQAGGSLRLSCAASGSIFGGNAMGWYRQAPGKERELVATITSAGSTYYADSVKGRFTISRDNAKNTVYLQMNSLKPEDTAVYYCAADPTYYWRYYPTRLYVEYDYWGQGTQVTVSS | low polyreactivity
19 | QVQLVESGGGLVQAGGSLRLSCAASGSIFGGNTMGWYRQAPGKERELVAAISWSGGRTYYADSVKGRFTISRDNAKNTVYLQMNSLKPEDTAVYYCAATFRGVLGWYHYEYWGQGTQVTVSS | high polyreactivity
20 | QVQLVESGGGLVQAGGSLRLSCAASGSIFGGYAMGWYRQAPGKERELVAAISSGGSTYYADSVKGRFTISRDNAKNTVYLQMNSLKPEDTAVYYCATSTYADRRNSYYYTRPRFGYWGQGTQVTVSS | high polyreactivity
21 | QVQLVESGGGLVQAGGSLRLSCAASGSIFGGYAMGWYRQAPGKERELVARIRVSGGRTYYADSVKGRFTISRDNAKNTVYLQMISLKPEDTAVYYCAVDRYWWLDGYDYWGQGTQVTVSS | high polyreactivity
22 | QVQLVESGGGLVQAGGSLRLSCAASGSIFGGYAMGWYRQAPGKERELVARITDRGGSTDYADSVKGRFTISRDNAKNTVYLQMNSLKPEDTAVYYCAKRGDRYEKRPRDYWGQGTQVTVSS | low polyreactivity

Row | Sequence | polyreactivity (PSR sort gate)
23 | QVQLVESGGGLVQAGGSLRLSCAASGSIFGGYAMGWYRQAPGKERELVAVISSGGSTNYADSVKGRFTISRDNAKNTVYLQMNSLKPEDTAVYYCAATVIYAYRGHFYQYDYWGQGTQVTVSS | high polyreactivity
24 | QVQLVESGGGLVQAGGSLRLSCAASGSIFGGYAMGWYRQAPGNERELVAAITYSAGNTYYADSVKGRFTISRDNAKNTVYLKMKSLKPEDTAVYYCAARTYRGPQYQYGNNYWGQGTQVTVSS | high polyreactivity
25 | QVQLVESGGGLVQAGGSLRLSCAASGSIFGGYGMGWYRQAPGKERQLVAAITSGSSTYYADSVKGRFTISRDNAKNTVYLQMNSLKPEDTAVYYCAARPYPHSAYQGDYWGRGTQVTVSS | low polyreactivity
26 | QVQLVESGGGLVQAGGSLRLSCAASGSIFGINAMGWYRPAPGKERQLVAAISGSTSRSYYADSVKGRFTISRDNAKNTVYLQMNSLKPEDTAVYYCAVVGLRSVTRRSYYWGQGTQVTVSS | high polyreactivity
27 | QVQLVESGGGLVQAGGSLRLSCAASGSIFGIYAMGWYRQAPGKERELVAAIDSSGTSTYYADSVKGRFTISRDNAKNTVYLQMNSLKPEDTAVYYCAAYHRISKNNYLGQGTQVTVSS | low polyreactivity
28 | QVQLVESGGGLVQAGGSLRLSCAASGSIFGIYTMGWYRQAPGKERELVAAITSVGSTNYADSVKGRFTISRDNAKNTVYLQMNSLKPEDTAGYYCARASAWYVTLVGKYTKYDYWGQGTQVTVSS | low polyreactivity
29 | QVQLVESGGGLVQAGGSLRLSCAASGSIFGIYVMGWYRQAPGKERELVAGISTRGGSTYYADSVKGRFTISRDNAKNTVYLQMNSLKPEDTAVYYCAAVPASYRYPMYYWGQGTQVNVSS | low polyreactivity
30 | QVQLVESGGGLVQAGGSLRLSCAASGSIFGKDAMVWYRQAPGKEREFVAGIRGSGTRTYYADSVKGRFTISRDNAKNTVYLQLNSLKPEDTAVYYCNAVFGYRGPYYYWGQGTQVTVSS | high polyreactivity
31 | QVQLVESGGGLVQAGGSLRLSCAASGSIFGKNAMGWYRPAPGKERELVAAITRRGGSTYYADSVKGRFTISRDNAKNTVYLQMISLKPEDTAVYYCNALLTGGYQDSYPDDYWGQGTQVTVSS | high polyreactivity
32 | QVQLVESGGGLVQAGGSLRLSCAASGSIFGKNVMGWYRQAPGKERELVAAISRSGGRTYYADSVKGRFTISRDNAKNTVYLQMNSLKPEDTAVYYCAADGQPIGQQTYDYWGQGTQVTVSS | high polyreactivity
33 | QVQLVESGGGLVQAGGSLRLSCAASGSIFGKYAMGWYRQAPAKERELVAAISDSGSITYYADSVKGRFTISRDNAKNTVYLQMNSLKPEDTAVYYCAAEVKYYQSFKYDYWGQGTQVTVSS | high polyreactivity
34 | QVQLVESGGGLVQAGGSLRLSCAASGSIFGKYAMGWYRQAPGKERELVAAISWSGGSTYYADSVKGRFTISRDNAKNTVYLQMNSLKPEDTAVYYCAKRRVYYGSRYNYWGQGTQVTVSS | high polyreactivity
35 | QVQLVESGGGLVQAGGSLRLSCAASGSIFGKYAMGWYRQAPGKERELVAAITIRGGSTYYADSVKGRFTISRDNAKNTVYLQMNSLKPEDTAVYYCNAVSKYYFGVDYWGQGTQVTVSS | high polyreactivity
36 | QVQLVESGGGLVQAGGSLRLSCAASGSIFGLNAMGCYRQAPGKERELVAAISGGSTNYADSVKGRFTISRDNAKNTVYLQMNSLKPEDTAVYYCAARARRRYYYWGQGTQVTVSS | high polyreactivity
37 | QVQLVESGGGLVQAGGSLRLSCAASGSIFGLYAMGWYRQAPGKERELVAAISSSGGTTYYADSVKGRFTISRDNEKNTVYLQMNSLKPEDTAVYYCATDYYDDVTIGYDYWGQGTQVTVSS | low polyreactivity
38 | QVQLVESGGGLVQAGGSLRLSCAASGSIFGLYAMGWYRQAPGKERELVAAITDSTGSTSYADSVKGRFTISRDNAKNTVYLQMNSLKPEDTAVYYCAAGQGRWRHGFDYWGQGTQVTVSS | low polyreactivity
39 | QVQLVESGGGLVQAGGSLRLSCAASGSIFGLYAMGWYRQAPGKERELVARITRSGGRTYYADSVKGRFTISRDNAKNTVYLQMNSLKPEDTAVYYCNKLLPSYVLPDDYWGQGTQVTVSS | low polyreactivity
40 | QVQLVESGGGLVQAGGSLRLSCAASGSIFGNYVMGWYRQAPGKERELVAAIRWTGGSTYYADSVKGRFTISRDNAKNTVYLQMNSLKAEDTAVYYSIADSSDDYDYWGQGTQVTVSS | low polyreactivity
41 | QVQLVESGGGLVQAGGSLRLSCAASGSIFGPNAMGWYRQSPGKERELVAAISWGGGSTYYADSVKARITISRDNAINTVYLQMNILKPEDTGVYYCNASGYHDTAVRYDYWGQGTQVTVSS | low polyreactivity
42 | QVQLVESGGGLVQAGGSLRLSCAASGSIFGPYAMGWYRQAPGKERELVAAISTRGGRTYYADSVKGRFTISRDNAKNTVYLQMISLKPEDTAVYYCNDRRSDSRSYDYWGQGTQVTVSS | high polyreactivity
43 | QVQLVESGGGLVQAGGSLRLSCAASGSIFGPYAMGWYRQAPGKERELVATITSGGRTYYADSVKGRFTISRDNAKNTVYLQLNSLKPEDTAVYYCAAAGKGRYHFRSTMDYWGQGTQVTVSS | high polyreactivity
